Data as given in patent US8951758B2, “GH61 glycoside hydrolase protein variants and cofactors that enhance GH61 activity” (Codexis, Inc., priority 2011, dated 2015).

Key:
[1] = system: pretreated corn stover (PCS); assay: Supplementation of CF-416 whole cellulase broth with single purified enzymes, saccharification of pretreated corn stover; type: biochemical; conditions: 0.4% single enzyme added to 0.5% CF-416 whole cellulase broth base; for Fold Improvement Over Whole Cellulase Broth Tested on PCS: 74 g/L glucan, pH 5.0, 55° C., 50 μM copper
Procedure: (§1) In this Example, M. thermophila-produced and purified GH61a, GH61p, GH61f, GH61n, CBH1a, CBH2b, AXE3, FAE, and Xyl3, were used to supplement the activity present in culture broths (i.e., “whole broth cellulase base”) of the M. thermophila strain CF-416 prepared using standard methods known in the art. The broth cellulase base was fixed to 0.5% protein and the single purified enzyme was added at 0.4% (wt added protein/wt glucan) to the saccharification reactions. The whole cellulase broth base and individual enzymes were characterized by standard BCA assays for total protein quantification.
(§2) The saccharification reactions were carried out at 74 g/L glucan load of pretreated wheat straw (PWS) or pretreated corn stover (PCS) at pH 5.0, 55° C. at 950 rpm in the presence of 50 μM copper in high throughput (HTP) 96 deep well plates. Glucose analysis was carried out by the glucose oxidase assay as described above. In each case, the fold improvement was calculated using the formula Fold Improvement=[Total Glucose Production with addition of 0.4% single enzyme to the whole cellulase broth base]/[glucose production from the 0.5% whole cellulase broth base]. In this Table, the fold improvements were ranked from 0 to 3; fold improvements less than 1.2× are indicated by “0,” fold improvements of >1.2 to <1.5 are indicated by “1,” fold improvements of ≧1.5× to <1.7× improvements are indicated by “2,” and fold improvements ≧1.7 are indicated by “3.”

[2] = system: pretreated wheat straw (PWS); assay: Supplementation of CF-416 whole cellulase broth with single purified enzymes, saccharification of pretreated wheat straw; type: biochemical; conditions: 0.4% single enzyme added to 0.5% CF-416 whole cellulase broth base; for Fold Improvement Over Whole Cellulase Broth Tested on PWS: 74 g/L glucan, pH 5.0, 55° C., 50 μM copper
Procedure: as §1, §2

| Molecule | improvement over whole cellulase broth on PCS, in words [1] | Fold Improvement Over Whole Cellulase Broth Tested on PCS [1] | Fold Improvement Over Whole Cellulase Broth Tested on PWS [2] | improvement over whole cellulase broth on PWS, in words [2] |
| --- | --- | --- | --- | --- |
| GH61p: M. thermophila GH61p (SEQ ID NO:70; alternative SEQ ID NO:73) (protein, listed as Myceliophthora thermophila) MKLTSSLAVLAAAGAQAHYTFPRAGTGGSLSGEWEVVRMTENHYSHGPVTDVTSPEMTCYQSGVQGAPQTVQVKAGSQFTFSVDPSIGHPGPLQFYMAKVPSGQTAATFDGTGAVWFKIYQDGPNGLGTDSITWPSAGKTEVSVTIPSCIEDGEYLLRVEHTPLPTAPAAQNRARSSPSPAAYKATDPGILFQLYWPIPTEYINPGPAPVSC | greatest benefit | 3 (fold improvements ≧1.7) | 2 (fold improvements of ≧1.5× to <1.7×) | – |
| EG1b: Wild-type EG1b endoglucanase (SEQ ID NO:110) (protein, listed as Myceliophthora thermophila) MGQKTLQGLVAAAALAASVANAQQPGTFTPEVHPTLPTWKCTTSGGCVQQDTSVVLDWNYRWFHTEDGSKSCITSSGVDRTLCPDEATCAKNCFVEGVNYTSSGVETSGSSLTLRQFFKGSDGAINSVSPRVYLLGGDGNYVVLKLLGQELSFDVDVSSLPCGENAALYLSEMDATGGRNEYNTGGAEYGSGYCDAQCPVQNWNNGTLNTGRVGSCCNEMDILEANSKAEAFTPHPCIGNSCDKSGCGFNAYARGYHNYWAPGGTLDTSRPFTMITRFVTDDGTTSGKLARIERVYVQDGKKVPSAAPGGDVITADGCTSAQPYGGLSGMGDALGRGMVLALSIWNDASGYMNWLDAGSNGPCSDTEGNPSNILANHPDAHVVLSNIRWGDIGSTVDTGDGDNNGGGPNPSSTTTATATTTSSGPAEPTQTHYGQCGGKGWTGPTRCETPYTCKYQNDWYSQCL | did not show any improvement | – | – | did not show any improvement |
| beta-xylosidase: wild-type M. thermophila beta-xylosidase (SEQ ID NO:164) (protein, listed as Myceliophthora thermophila) MFFASLLLGLLAGVSASPGHGRNSTFYNPIFPGFYPDPSCIYVPERDHTFFCASSSFNAFPGIPIHASKDLQNWKLIGHVLNRKEQLPRLAETNRSTSGIWAPTLRFHDDTFWLVTTLVDDDRPQEDASRWDNIIFKAKNPYDPRSWSKAVHFNFTGYDTEPFWDEDGKVYITGAHAWHVGPYIQQAEVDLDTGAVGEWRIIWNGTGGMAPEGPHIYRKDGWYYLLAAEGGTGIDHMVTMARSRKISSPYESNPNNPVLTNANTTSYFQTVGHSDLFHDRHGNWWAVALSTRSGPEYLHYPMGRETVMTAVSWPKDEWPTFTPISGKMSGWPMPPSQKDIRGVGPYVNSPDPEHLTFPRSAPLPAHLTYWRYPNPSSYTPSPPGHPNTLRLTPSRLNLTALNGNYAGADQTFVSRRQQHTLFTYSVTLDYAPRTAGEEAGVTAFLTQNHHLDLGVVLLPRGSATAPSLPGLSSSTTTTSSSSSRPDEEEEREAGEEEEEGGQDLMIPHVRFRGESYVPVPAPVVYPIPRAWRGGKLVLEIRACNSTHFSFRVGPDGRRSERTVVMEASNEAVSWGFTGTLLGIYATSNGGNGTTPAYFSDWRYTPLEQFRD | did not show any improvement | – | – | did not show any improvement |
| CBH2b: wild-type M. thermophila CBH2b (SEQ ID NO:137) (protein, listed as Myceliophthora thermophila) MAKKLFITAALAAAVLAAPVIEERQNCGAVWTQCGGNGWQGPTCCASGSTCVAQNEWYSQCLPNSQVTSSTTPSSTSTSQRSTSTSSSTTRSGSSSSSSTTPPPVSSPVTSIPGGATSTASYSGNPFSGVRLFANDYYRSEVHNLAIPSMTGTLAAKASAVAEVPSFQWLDRNVTIDTLMVQTLSQVRALNKAGANPPYAAQLVVYDLPDRDCAAAASNGEFSIANGGAANYRSYIDAIRKHIIEYSDIRIILVIEPDSMANMVTNMNVAKCSNAASTYHELTVYALKQLNLPNVAMYLDAGHAGWLGWPANIQPAAELFAGIYNDAGKPAAVRGLATNVANYNAWSIASAPSYTSPNPNYDEKHYIEAFSPLLNSAGFPARFIVDTGRNGKQPTGQQQWGDWCNVKGTGFGVRPTANTGHELVDAFVWVKPGGESDGTSDTSAARYDYHCGLSDALQPAPEAGQWFQAYFEQLLTNANPPF | – | 1 (fold improvements of >1.2 to <1.5) | 1 (fold improvements of >1.2 to <1.5) | – |
| GH61f: M. thermophila GH61f (SEQ ID NO:29) (protein, listed as Myceliophthora thermophila) MKSFTLTTLAALAGNAAAHATFQALWVDGVDYGAQCARLPASNSPVTDVTSNAIRCNANPSPARGKCPVKAGSTVTVEMHQQPGDRSCSSEAIGGAHYGPVMVYMSKVSDAASADGSSGWFKVFEDGWAKNPSGGSGDDDYWGTKDLNSCCGKMNVKIPADLPSGDYLLRAEALALHTAGSAGGAQFYMTCYQLTVTGSGSASPPTVSFPGAYKATDPGILVNIHAPLSGYTVPGPAVYSGGSTKKAGSACTGCESTCAVGSGPTATVSQSPGSTATSAPGGGGGCTVQKYQQCGGQGYTGCTNCASGSTCSAVSPPYYSQCV | – | 1 (fold improvements of >1.2 to <1.5) | 1 (fold improvements of >1.2 to <1.5) | – |
| GH61n: M. thermophila GH61n (SEQ ID NO:62; alternative SEQ ID NO:64) (protein, listed as Myceliophthora thermophila) MTKNAQSKQGVENPTSGDIRCYTSQTAANVVTVPAGSTIHYISTQQINHPGPTQYYLAKVPPGSSAKTFDGSGAVWFKISTTMPTVDSNKQMFWPGQNTYETSNTTIPANTPDGEYLLRVKQIALHMASQPNKVQFYLACTQIKITGGRNGTPSPLVALPGAYKSTDPGILVDIYSMKPESYQPPGPPVWRG | – | 1 (fold improvements of >1.2 to <1.5) | 1 (fold improvements of >1.2 to <1.5) | – |
| AXE3: wild-type M. thermophila acetylxylan esterase (SEQ ID NO:167) (protein, listed as Myceliophthora thermophila) MKLLGKLSAALALAGSRLAAAHPVFDELMRPTAPLVRPRAALQQVTNFGSNPSNTKMFIYVPDKLAPNPPIIVAIHYCTGTAQAYYSGSPYARLADQKGFIVIYPESPYSGTCWDVSSRAALTHNGGGDSNSIANMVTYTLEKYNGDASKVFVTGSSSGAMMTNVMAAAYPELFAAGIAYSGVPAGCFYSQSGGTNAWNSSCANGQINSTPQVWAKMVFDMYPEYDGPRPKMQIYHGSADGTLRPSNYNETIKQWCGVFGFDYTRPDTTQANSPQAGYTTYTWGEQQLVGIYAQGVGHTVPIRGSDDMAFFGL | – | 0 (fold improvements less than 1.2×) | 1 (fold improvements of >1.2 to <1.5) | – |
| FAE: wild-type M. thermophila ferulic acid esterase (SEQ ID NO:170) (protein, listed as Myceliophthora thermophila) MISVPALALALLAAVQVVESASAGCGKAPPSSGTKSMTVNGKQRQYILQLPNNYDANKAHRVVIGYHWRDGSMNDVANGGFYDLRSRAGDSTIFVAPNGLNAGWANVGGEDITFTDQIVDMLKNDLCVDETQFFATGWSYGGAMSHSVACSRPDVFKAVAVIAGAQLSGCAGGTTPVAYLGIHGAADNVLPIDLGRQLRDKWLQTNGCNYQGAQDPAPGQQAHIKTTYSCSRAPVTWIGHGGGHVPDPTGNNGVKFAPQETWDFFDAAVGAAGAQSPMT | – | 1 (fold improvements of >1.2 to <1.5) | 1 (fold improvements of >1.2 to <1.5) | – |
| Xyl3: wild-type M. thermophila xylanase (SEQ ID NO:149) (protein, listed as Myceliophthora thermophila) MHSKAFLAALLAPAVSGQLNDLAVRAGLKYFGTALSESVINSDTRYAAILSDKSMFGQLVPENGMKWDATEPSRGQFNYASGDITANTAKKNGQGMRCHTMVWYSQLPSWVSSGSWTRDSLTSVIETHMNNVMGHYKGQCYAWDVINEAINDDGNSWRDNVFLRTFGTDYFALSFNLAKKADPDTKLYYNDYNLEYNQAKTDRAVELVKMVQAAGAPIDGVGFQGHLIVGSTPTRSQLATALQRFTALGLEVAYTELDIRHSSLPASSSALATQGNDFANVVGSCLDTAGCVGVTVWGFTDAHSWIPNTFPGQGDALIYDSNYNKKPAWTSISSVLAAKATGAPPASSSTTLVTITTPPPASTTASSSSSATPTSVPTQTRWGQCGGIGWTGPTQCESPWTCQKLNDWYWQCL | – | 0 (fold improvements less than 1.2×) | 1 (fold improvements of >1.2 to <1.5) | – |
| CBH1a: wild-type M. thermophila CBH1a (SEQ ID NO:128) (protein, listed as Myceliophthora thermophila) MYAKFATLAALVAGAAAQNACTLTAENHPSLTYSKCTSGGSCTSVQGSITIDANWRWTHRTDSATNCYEGNKWDTSWCSDGPSCASKCCIDGADYSSTYGITTSGNSLNLKFVTKGQYSTNIGSRTYLMESDTKYQMFQLLGNEFTFDVDVSNLGCGLNGALYFVSMDADGGMSKYSGNKAGAKYGTGYCDSQCPRDLKFINGEANVENWQSSTNDANAGTGKYGSCCSEMDVWEANNMAAAFTPHPCTVIGQSRCEGDSCGGTYSTDRYAGICDPDGCDFNSYRQGNKTFYGKGMTVDTTKKITVVTQFLKNSAGELSEIKRFYVQNGKVIPNSESTIPGVEGNSITQDWCDRQKAAFGDVTDFQDKGGMVQMGKALAGPMVLVMSIWDDHAVNMLWLDSTWPIDGAGKPGAERGACPTTSGVPAEVEAEAPNSNVIFSNIRFGPIGSTVSGLPDGGSGNPNPPVSSSTPVPSSSTTSSGSSGPTGGTGVAKHYEQCGGIGFTGPTQCESPYTCTKLNDWYSQCL | – | 1 (fold improvements of >1.2 to <1.5) | 3 (fold improvements ≧1.7) | – |
